The values that follow come from patent US20140079722A1, “EXTRACELLULAR TARGETED DRUG CONJUGATES” (CENTROSE, LLC, priority 2011, published 2014).

The test system of one series is PANC-1 xenograft. Put plainly: PANC-1 xenograft model, alone and with gemcitabine. It is filed as in vivo, C.B-17/IcrHsd-Prkdc scid Lyst bg mice. As for the experimental part:
A disease model of pancreatic cancer was established by implanting 5×10^6 PANC-1 cells in 100 μL DMEM into the left flank of 7 week old female C.B-17/IcrHsd-Prkdc^scidLyst^bg mice. Mice were then treated with M53-PEG24-CEN09-106 with a drug loading of 8 and/or gemcitabine when the tumor size in groups of 3 animals averaged ˜500 mm^3. Treatments consisted of either vehicle control, M53-PEG24-CEN09-106 at 0.2, 1 and 5 mg/kg, with and without 60 mg/kg gemcitabine or 60 mg/kg gemcitabine alone and consisted of multiple injections using the M53-PEG24-CEN09-106 schedule of one injection every 7 days for 3 injections (q7d×3) administered i.v. and the gemcitabine schedule of one injection every 3 days for 5 injections (q3d×5) administered i.p. Tumor volumes were measured for each group using calibrated vernier calipers and plotted against first day of tumor implant for 28 days post-initial dose, graphed and shown in FIG. 6.

A short description of series [1]: Single-dose tolerated dose (MTD), tail vein. Type of series: in vivo, BALB/c mice. As for the experimental part:
EDC M53-PEG24-CEN09-106 preparations with drug loading of 2, 5 or 9 drugs per antibody were administered to BALB/c mice (Harlan Laboratories, n=1) in a single dose of 25, 50, 100 and 200 mg/kg via the tail vein to determine single-dose MTDs. Mice were monitored daily for 24 days, and both weight and clinical observations were recorded (weight measured at least twice a week and evaluation for overt signs of toxicity conducted at least twice a day).

In series [2] the test system is primary human umbilical artery endothelial cells (HUAEC). The series is described as follows: In vitro normal cell cytotoxicity. Particulars: HUAEC, 72 hrs; conjugates as antibody concentration; read-out: EC50. Type of series: cell-based. As for the experimental part:
(§1) In vitro normal cell cytotoxicity. The in vitro cytotoxic activity of M53-PEG24-CEN09-106, PEG24-CEN09-106, M53-PEG24-CEN-319, PEG24-CEN-319, proscillaridin and digitoxin against dysadherin positive primary normal human cells and a dysadherin positive human non-small cell lung carcinoma (NSCLC) cell line were tested and compared. The cells used were primary human renal epithelial cells (HREpC), primary human umbilical vein endothelial cells (HUVEC), primary human umbilical artery endothelial cells (HUAEC), and the A549 NSCLC cells. The primary cells were obtained from PromoCell GmbH, Heidelberg, Germany, and the NSCLC cell line A549 was obtained from ATCC. Primary renal epithelial cells were grown in Renal Epithelial Cell Growth Medium 2 (PromoCell GmbH, Heidelberg, Germany). Primary endothelial cells were grown in Endothelial Cell Growth Medium 2 (PromoCell GmbH, Heidelberg, Germany). The NSCLC cell line was grown in RPMI-1640 (HyClone, Thermo Scientific) supplemented with 10% fetal bovine serum. HREpC, HUVEC, HUAEC, and A549 cells were plated in 384 well plates at 1250, 1875, 2500, and 1250 cells/well (respectively) and allowed to incubate for 24 hrs at 37° C., 5% CO2, and 100% humidity. Various concentrations of conjugates M53-PEG24-CEN09-106 and […] and PEG24-CEN09-106 and […] were added to the wells in a total volume of 5 uL of media and the plates were incubated for an additional 72 hrs. After 72 hrs of exposure to agent, cell viability was evaluated using the Cell Titer-Glo Luminescent Cell Viability Assay (Promega, Madison, Wis.) according to the manufacturer's instructions. Luminescence measurements were performed using a Wallac Victor^2 Model 1420-041 assay plate reader (Perkin Elmer, Gaithersburg, Md.). EC50 values for each test agent were determined using GraphPad Prism 5 software.

Series [3] concerns primary human umbilical vein endothelial cells (HUVEC). Put plainly: In vitro normal cell cytotoxicity. The note with it: 72 hrs, conjugates as antibody concentration, read-out: EC50. Type of series: cell-based. Here is the method: as §1
A short description of series [4]: Pharmacokinetics and serum stability, antibody and drug specific ELISA. Type of series: in vivo, Balb/c mice. The note with it: for serum half-life of the antibody portion / serum half-life of the steroid drug portion: Balb/c mice; for serum half-life of the antibody portion: EDC drug loading of 3; for serum half-life of the steroid drug portion: drug loading of 3; for serum stability half-life of the EDC: from ratio of slopes of serum decay of drug and antibody portions. Here is the method:
The steroid drug pharmacokinetics of M53-PEG24-CEN09-106 were measured using the drug specific ELISA described below. The comparison between the two ELISA results (antibody concentrations minus drug concentrations) was used to determine the rate of drug breakdown and thus examine M53-PEG24-CEN09-106 stability.
Serum was isolated from blood samples acquired by retro-orbital blood collection at 1, 2, 4, 8, 16, 26, and 40 days post-injection. […] Plasma concentrations of the steroid drug in M53-PEG24-CEN09-106 were measured as follows. Antigen coated ELISA plates were washed (×3) with PBS pH 7, blocked 30 min with PBS pH 7 containing 1% NFDM (PBS+NFDM), and then washed (×3) with PBS, pH 7. Diluted serum samples and standard curves of M53-PEG24-CEN09-106 were prepared in the above blocking buffer and applied to coated wells, incubated 30 min at RT, and the wells were washed (×3) with PBS, pH 7. Biotinylated 25C2E3 (a monoclonal IgG1 antibody specific for the steroid portion of PEG24-CEN09-106 and conjugated to biotin [Thermo Scientific, PN 21911]) was diluted to 100 ng/mL in PBS+NFDM and added (100 uL) to each well, incubated 30 min at RT, and the wells washed (×3) with PBS, pH 7. PNPP at 1 mg/mL in 1M DEA with 50 mM MgCl2, pH 9.8 was added (100 uL per well), and the absorbance at 405 nm was determined using a Wallac Victor^2 Model 1420-041 assay plate reader (Perkin Elmer, Gaithersburg, Md.) every 5 minutes for a total of 6 reads.
For both ELISAs, absorbance values from known standards were plotted as absorbance over time, generating a linear slope for each concentration. The slopes generated were then plotted against the respective concentrations of the standards, creating a second linear plot. The absorbance values for the unknown serum samples were plotted over time, establishing a slope for unknown sample. The linear estimate from the slope versus concentration plot was then used to extrapolate concentrations for each unknown sample based on their slope.
To determine serum stability of the intact EDC (drug release from the antibody over time) in these samples, the ratio of the slopes of serum decay of the drug portion to the serum decay of the antibody portion were calculated.
For orientation: ELISA stands for enzyme-linked immunosorbent assay.

B1: M53-PEG24-CEN09-106: Class 1 EDC: antibody M53 conjugated to linker-ready agent PEG24-CEN09-106 (scillarenin, 4-amino-xyloside, PEG24) (conjugate)
heavy: EVQLVESGGGLVQPKGTLKLSCAASGFSFNTHAMNWVRQAPGKSLEWVARTMSKSNNYATYYADSVKDRFIIRADDSQSMLYLQMNNLKTEDTAMYYCVRDDPKRGMDYWGQGTSVTVSSAKTTPPSVYPLAPGSAAQTNSMVTLGCLVKGYFPEPVTVTWNSGSLSSGVHTFPAVLQSDLYTLSSSVTVPSSTWPSETVTCNVAHPASSTKVDKKIE
light: GIVMSQSPSSLAVSVGEKVTMSCKPSQSLLYSRNQKIYLAWYQQKPGQSPKLLIYWASTRESGVPDRFTGSGSGTDFTLIISSVRAEDLAVYYCQQYYNYPLTFGAGTKLELKRADAAPTVSIFPPSSEQLTSGGASVVCFLNNFYPKDINVKWKIDGSERQNGVLNSWTDQDSKDSTYSMSSTLTLTKDEYERHNSYTCEATHKTSTSPIVKSFNR
Regarding B1, the “growth inhibition of the tumor” value in the series on PANC-1 xenograft (0.2 mg/kg i.v. q7dx3 combined with 60 mg/kg gemcitabine i.p. q3dx5) was determined as 88%. Further, in the series on PANC-1 xenograft (1 and 5 mg/kg i.v. q7dx3 combined with 60 mg/kg gemcitabine i.p. q3dx5), the tumor response result is listed as “tumor regression”. Also, the “growth inhibition of the tumor compared to vehicle” value came out at 38% in the series with PANC-1 xenograft (drug loading of 8, 0.2 mg/kg i.v. q7dx3, day 28 post-initial dose); 48% in the series on PANC-1 xenograft (drug loading of 8, 1 mg/kg i.v. q7dx3, day 28 post-initial dose); 76% with PANC-1 xenograft (drug loading of 8, 5 mg/kg i.v. q7dx3, day 28 post-initial dose). Besides, the clinical observations result in series [1] (drug loading of 2, 200 mg/kg) is “limb weakness at day 1 but recovered by day 3”; in series [1] (drug loading of 5, 100 mg/kg), “slight limpness and closed front limbs but recovered by day 3”; in series [1] (drug loading of 5, 200 mg/kg) it was “limpness and closed front limbs and weakness at days 1 and 2”; in series [1] (drug loading of 5, 25 and 50 mg/kg) it was “no signs of toxicity or weight loss”; in series [1] (drug loading of 9, 25 mg/kg), “no signs of toxicity or weight loss”; in series [1] (drug loading of 9, 50 mg/kg), “slight limpness on day 2 but recovered by day 3”. In series [1] (drug loading of 9, 100 and 200 mg/kg), the clinical observations result was “limpness, closed front limbs and weakness by day 1 which continued through day 2”. Moreover, the “loss in body weight” value in series [1] (drug loading of 2, 200 mg/kg) was found to be 25%. The same molecule gave an MTD in series [1] (drug loading of 2, single dose tail vein, BALB/c mice) above 100 mg/kg. For the same molecule, the weight loss in series [1] (drug loading of 5, 100 mg/kg) was found to be 27%; in series [1] (drug loading of 9, 50 mg/kg, by day 5), 30%. The results for the 50% effective concentration (EC50) in series [2] and in series [3] were 29 nM and 30 nM, respectively. Moreover, the “serum half-life of the antibody portion” value in series [4] (1 mg/kg tail vein) is recorded as 11.9 days; in series [4] (10 mg/kg tail vein) it was 9.2 days. The “serum half-life of the steroid drug portion” value is recorded as 11 days in series [4] (1 mg/kg tail vein) and 8 days in series [4] (10 mg/kg tail vein). For the same molecule, the entries for the “serum stability half-life of the EDC” value in series [4] (1 mg/kg) and in series [4] (10 mg/kg) were 45 days and 39 days, respectively.

What is called MTD is the largest dose that counted as tolerated. High values mean better tolerability, low ones poorer tolerability. By EC50 is commonly meant the concentration giving half of the maximal effect.
